Test results as given in patent publication US20240122909A1, “TREATMENTS OF HEREDITARY ANGIOEDEMA” (KALVISTA PHARMACEUTICALS LIMITED, priority 2021, published 2024).

Experiments:
[1] = background, literature or label; cited from earlier work
[2] = phase 1 studies, repeat dosing; cited from earlier work
plasma kallikrein = plasma kallikrein (Homo sapiens, UniProt P03952); assay: Inhibition of enzyme activity of pre-activated plasma (compound added after DXS); assay type: biochemical; details: added 3.5 minutes post DXS; compound 300, 1000, 3000 nM; C1-INH 3000 nM
Description: The ability of the compound to inhibit the enzyme activity of pre-activated plasma was assessed by addition of the compound after DXS stimulation. Aliquots of plasma (20 μL) were mixed with a 2.5 μL solution containing […] fluorogenic substrate (H-DPro-Phe-Arg-AFC) and a 2.5 μL solution of dextran sulphate (DXS; 100 μg/mL) which acted as an activator of the plasma kallikrein-kinin pathway. Enzyme activity was immediately measured by monitoring the accumulation of fluorescence liberated from the substrate by substrate cleavage over 16 minutes. At 3.5 minutes post DXS addition 5 μl of inhibitors or water control are were added into each well. The compound was tested at concentrations of 300, 1000 and 3000 nM. C1-INH at a concentration of 3000 nM and vehicle controls were also included.

Sequence of plasma kallikrein (P03952 391-638 limits assumed): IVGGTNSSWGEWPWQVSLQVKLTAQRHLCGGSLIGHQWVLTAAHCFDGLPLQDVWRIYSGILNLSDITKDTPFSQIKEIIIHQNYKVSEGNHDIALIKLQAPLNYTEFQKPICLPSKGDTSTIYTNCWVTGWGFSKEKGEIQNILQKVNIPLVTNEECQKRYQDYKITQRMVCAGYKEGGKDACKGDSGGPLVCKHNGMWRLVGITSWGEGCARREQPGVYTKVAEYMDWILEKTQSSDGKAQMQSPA
Sequence of plasma kallikrein (P03952 20-390 partner limits assumed): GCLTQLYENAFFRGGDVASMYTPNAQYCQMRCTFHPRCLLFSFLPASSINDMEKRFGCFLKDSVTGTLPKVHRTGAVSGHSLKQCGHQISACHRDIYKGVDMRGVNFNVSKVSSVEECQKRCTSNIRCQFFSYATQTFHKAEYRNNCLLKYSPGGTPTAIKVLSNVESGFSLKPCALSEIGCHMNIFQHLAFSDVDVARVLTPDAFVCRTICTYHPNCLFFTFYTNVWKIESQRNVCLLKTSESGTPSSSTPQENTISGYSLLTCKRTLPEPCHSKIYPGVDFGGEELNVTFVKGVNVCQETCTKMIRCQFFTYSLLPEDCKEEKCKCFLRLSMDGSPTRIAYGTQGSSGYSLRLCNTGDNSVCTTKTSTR

N#Cc1cccc([C@@H](NCC2CC2)c2ccc(F)c(NC(=O)c3cc(C(F)(F)F)nn3-c3cccc(CN)c3)c2)c1 [Berotralstat]
reported adverse reactions [1]: higher doses were associated with more gastrointestinal adverse effects

COCc1nn(Cc2ccc(Cn3cc(F)ccc3=O)cc2)cc1C(=O)NCc1nccc(OC)c1F [KVD824, 1-({4-[(5-fluoro-2-oxopyridin-1-yl)methyl]phenyl}methyl)-N-[(3-fluoro-4-methoxypyridin-2-yl)methyl]-3-(methoxymethyl)pyrazole-4-carboxamide]
pharmacokinetic profile [2]: consistent pharmacokinetic profile over repeat dosing

C1-INH: C1 inhibitor (C1-INH, Sigma Cat #E0518), therapeutic benchmark for HAE [Compound C1-INH]
inhibition of enzyme activity after activation of plasma (plasma kallikrein): slower action

Ecallantide
reported adverse reactions [1]: risk of anaphylactic reactions

B1: lanadelumab: recombinant fully human IgG1 kappa light chain monoclonal antibody, active substance of Takhzyro® (antibody, chains of the INN, looked up, V domains shown)
VH: EVQLLESGGGLVQPGGSLRLSCAASGFTFSHYIMMWVRQAPGKGLEWVSGIYSSGGITVYADSVKGRFTISRDNSKNTLYLQMNSLRAEDTAVYYCAYRRIGVPRRDEFDIWGQGTMVTVSS
VL: DIQMTQSPSTLSASVGDRVTITCRASQSISSWLAWYQQKPGKAPKLLIYKASTLESGVPSRFSGSGSGTEFTLTISSLQPDDFATYYCQQYNTYWTFGQGTKVEIK
reported adverse reactions [1]: hypersensitivity, injection site pain, injection site erythema, and injection site bruising
